Positions count from the first letter of the chain named. Names and notes keep the numbering of the source. Like-named read-outs stand apart in the source and are kept apart here.

The values that follow come from PMC9574375 (Cancer Research, 2022).

Series [1] deals with the molecule itself. Briefly: non-reducing SDS-PAGE and immunoblot or Coomassie staining.
Series [2] concerns the molecule itself. The description is as above. This is another data set of the same source.

B1: GST-tagged RET CLD4-CRD (amino acids 382–635) D567N (domain or fragment, human, UniProt P07949 382-635, looked up)
chain: QGPGAGVLLLHFNVSVLPVSLHLPSTYSLSVSRRARRFAQIGKVCVENCQAFSGINVQYKLHSSGANCSTLGVVTSAEDTSGILFVNDTKALRRPKCAELHYMVVATDQQTSRQAQAQLLVTVEGSYVAEEAGCPLSCAVSKRRLECEECGGLGSPTGRCEWRQGDGKGITRNFSTCSPSTKTCPNGHCDVVETQDINICPQDCLRGSIVGGHEPGEPRGIKAGYGTCNCFPEEEKCFCEPEDIQDPLCDELCR
For B1, the binding result in series [1] is “binds”.

B2: GST-tagged RET CLD4-CRD (amino acids 382–635), wild type (domain or fragment, human, UniProt P07949 382-635, looked up)
chain: B1 chain with N186D
Consider B2, for which the binding result in series [2] is “binds”.
